Data on 12 sequences can be found in the DeepSol protein solubility set.

The nature of this series: soluble on expression in E. coli; label from the status in PepcDB or PDB records.
Turning to “MGSDKIHHHHHHMNIQEAFNAAAVDYDSLRRILIPCFDDFYKTAVEIIPIERTAPIKVLDLGAGTGLYSGMVQSVFPNAELTLLDLAPEMLEKAKLRFSKMGKSPKILIGDYVETNLDDSYDLIISALSIHHLSDFDKELLYQRIYNFLNPGGIFVNADQVLGKTPDLEELYRQHWLDSVRAKGISEEDLKAAQKRMEYDRMATLEIQLHWLEAAGFQNVDCWYKNFSFAVFGGYRPTI”, the “soluble on expression in E. coli” value is listed as “not soluble”.
On to “MSTAAKQNRSTSRVSKKKTAAPKEGAAKKSDKGHKYEYVELAKASLTSAQPQHFYAVVIDATFPYKTNQERYICSLKIVDPTLYLKQQKGAGDASDYATLVLYAKRFEDLPIIHRAGDIIRVHRATLRLYNGQRQFNANVFYSSSWALFSTDKRSVTQEINNQDAVSDTTPFSFSSKHATIEKNEISILQNLRKWANQYFSSYSVISSDMYTALNKAQAQKGDFDVVAKILQVHELDEYTNELKLKDASGQVFYTLSLKLKFPHVRTGEVVRIRSATYDETSTQKKVLILSHYSNIITFIQSSKLAKELRAKIQDDHSVEVASLKKNVSLNAVVLTEVDKKHAALPSTSLQDLFHHADSDKELQAQDTFRTQFYVTKIEPSDVKEWVKGYDRKTKKSSSLKGASGKGDNIFQVQFLVKDASTQLNNNTYRVLLYTQDGLGANFFNVKADNLHKNADARKKLEDSAELLTKFNSYVDAVVERRNGFYLIKDTKLIY”, for which the “soluble on expression in E. coli” value is listed as “soluble”.
With “MSADENNLIWIDLEMTGLDPERDRIIEIATLVTDASLNILAEGPTIAVHQSDAQLALMDDWNVRTHTGSGLVDRVKASTMGERDAELATIEFLKTWVPAGKSPICGNSIGQDRRFLFKYMPELEAYFHYRYLDVSTLKELARRWKPEILAGFTKQGTHQAMDDIRESVAELAYYREHFIKL” the entry was “not soluble”.
In the case of “MSLTVKDILDAIQSPDSTPADIAALPLPESYRAITVHKDETEMFAGLETRDKDPRKSIHLDDVPVPELGPGEALVAVMASSVNYNSVWTSIFEPLSTFGFLERYGRVSDLAKRHDLPYHVIGSDLAGVVLRTGPGVNAWQAGDEVVAHCLSVELESSDGHNDTMLDPEQRIWGFETNFGGLAEIALVKSNQLMPKPDHLSWEEAAAPGLVNSTAYRQLVSRNGAGMKQGDNVLIWGASGGLGSYATQFALAGGANPICVVSSPQKAEICRAMGAEAIIDRNAEGYRFWKDENTQDPKEWKRFGKRIRELTGGEDIDIVFEHPGRETFGASVFVTRKGGTITTCASTSGYMHEYDNRYLWMSLKRIIGSHFANYREAWEANRLIAKGRIHPTLSKVYSLEDTGQAAYDVHRNLHQGKVGVLCLAPEEGLGVRDREKRAQHLDAINRFRNEGHHHHHH”, the “soluble on expression in E. coli” value is given as “soluble”.
Regarding “MAIQTVSTKPFANQKPGTSGLRNKVIAFQQPRYLENFVQSIFNSLDDIEGKTLVVGGDGRYYNDVAIQIIVRMAAANGFAKIIVGQNGIFSTPAVSCVIRKYEAFGGIVLSASHNPGGPKGDFGIKYNVSNGGPAPEKITDRIFSETKKINQYFISDAAKESVDLDKLGTYKIENTTVEVINSVIDYAELMQQIFDFDKVRELFAKGFKVRFDSMCAVSGPYAKYIFETLLKAPAGTVVNAQPLEDFGGFHPDPNPVNAEDLVKHMRSGKYDFGAASDGDADRNMIVGKQIDVSPSDSLAIMAANAHLIPVYSKGIKGVARSMPTSTAVDRVAESLRLPCFETPTGWKFFGNLLDAEKITLCGEESYGTGSNHIREKDGVWAVLFWLNLVAVTGKQVDQLVEEHWQKFGRNFYSRHDYEAIDTAIANSIIDSLRERLSSLVGAQLNDEKVAKADDFSYIDPIDGLVSNHQGIRIIFEDGSRIVFRLSGTGTQGATLRIYLEKYESDSSKFSIPTQQALASLIEIAEDLTNIKSLTGMTEPTVVT”, the “soluble on expression in E. coli” value was “not soluble”.
Turning to “MGSDKIHHHHHHAEVPVSDTIQQEAPAKVQITYDDPRDPFEGFNRAMWDFNYLYLDRYLYRPVAHGYNDYIPMPAKTGINNFVQNLEEPSSLVNNVLQGKWGWAANAGGRFTINSTVGLLGVIDVADMMGMSRKQDEFNEVLGYYGVPNGPYFMAPFAGPYVVRELASDWVDGLYFPLSELTMWQTIVKWGLKNLHSRASAIDQERLVDNALDPYAFVKDAYLQHMDYKVYDGNVPQKQDDDELLDQYMQELE”, the “soluble on expression in E. coli” value was “not soluble”.
As to “SNAMNIQILQEQANTLRFLSADMVQKANSGHPGAPLGLADILSVLSYHLKHNPKNPTWLNRDRLVFSGGHASALLYSFLHLSGYDLSLEDLKNFRQLHSKTPGHPEISTLGVEIATGPLGQGVANAVGFAMAAKKAQNLLGSDLIDHKIYCLCGDGDLQEGISYEACSLAGLHKLDNFILIYDSNNISIEGDVGLAFNENVKMRFEAQGFEVLSINGHDYEEINKALEQAKKSTKPCLIIAKTTIAKGAGELEGSHKSHGAPLGEEVIKKAKEQAGFDPNISFHIPQASKIRFESAVELGDLEEAKWKDKLEKSAKKELLERLLNPDFNKIAYPDFKGKDLATRDSNGEILNVLAKNLEGFLGGSADLGPSNKTELHSMGDFVEGKNIHFGIREHAMAAINNAFARYGIFLPFSATFFIFSEYLKPAARIAALMKIKHFFIFTHDSIGVGEDGPTHQPIEQLSTFRAMPNFLTFRPADGVENVKAWQIALNADIPSAFVLSRQKLKALNEPVFGDVKNGAYLLKESKEAKFTLLASGSEVWLCLESANELEKQGFACNVVSMPCFELFEKQDKAYQERLLKGEVIGVEAAHSNELYKFCHKVYGIESFGESGKDKDVFERFGFSVSKLVNFILSK”, the “soluble on expression in E. coli” value is “soluble”.
With “MSLAQNMTIKDDFIHAFSSNANEPDWFLDIRRNAFKAYGELDLPFVDKTKITRWNFTKFETFIPFKEGVTNETLPEKVANLVDLDNKEANFYVQMDERPARLQLQQELVDQGVIFTDIISAVKNHPELVKKYFMKDAVQVNEHKLTAFHAALVNGGIFLYVPKNVEVKSPIQAVFVQDKAESPLVNHVLLVADDNSAVTYVENYVTVNNEPKGIVSIVEEVIAEKNARITFGGVDNLASEVTAYVNRRGHIGTDSQIEWALGLMNDGDTINENVTNLMGDGSSADVKTVTVGRGKQTQNVTTRVTHYGKASNGTILSHGVMKERATTIFNGIGHIKHGASKSDAQQESRVLMLSPEARGDANPILLIDENDVVAGHAASVGRVDPLQLFYLMSRGISQKEAERLVIHGFLDPVVRQLPIESVKTMLREVIEGKVREGHHHHHH” the entry was “soluble”.
In the case of “MFEGGHSKSFSIFPIRVVYMPVEQGEVPATILISVSKRRFKRAVKRNRVKRQIREVYRKNKQPLLDGLQNKGQRLAIAFIYLSDELVATAELEEKMKTALSRISEKLSL”, the “soluble on expression in E. coli” value is listed as “not soluble”.
The result for “MLILMDPEETGKAPEIRALKSRAVNRVDSDLGRMEAVKRLKGVEDRRVGSEVFDELTLKTLYKLANSGYLAVLNGAVSTGKEANVFKGITDTDDFVAVKIYRVATSDFKKMQYYIQGDPRFKVRTTNRRQLVQAWVNKEFRNLKRALEAGVRVPEPVTARDNVLIMEFIGKDGVPAPTMRDAPPEDPEEALETIIEYMHRLYKGARLVHGDLSFFNILNHCGEPVIIDVSQAMVLDHPLAGELLERDIENIIRDFRRIGVSVSADYIRERITGK” reads “soluble”; that for “MTLILKRVQLLKDKPRREAIDRFLRQHQLSLEADCEMAIIAEYQQRLVGCGAIAGNVLKCIAIDPSLQGEGLSLKLLTELLTLAYELGRSELFLFTKPCNAALFSGAGFWPIAQAGDRAVLMENSRERLTRYCRQLAMYRQPGRKIGAIVMNANPFTLGHRWLVEQAASQCDWLHLFVVKEDASCFSYHDRFKLIEQGITGIDKVTLHPGSAYLISRATFPGYFLKEQGVVDDCHSQIDLQLFRERLAPALQITHRFVGTEPLCPLTRNYNQRMKSLLEAPGDAPPIEVVELARIEKNGGPVSASRVRELYRQRNWQAVAALVPPGTLSFLMQLAESEHQTA”, “not soluble”.
Consider “MGSDKIHHHHHHMMRLLCFIDYLGSGGAQRQLTFLARHLKKSGVDVEVLTYHESDFFIPVLAEAGINVETVRGGGRFTKVFSLRKSIRARKFDVLLAFLNAPALYAEIAALPRRRWGLVVSERLAVPGSSMGFARFRRYLHGLADYVTTNSHTNRLLIEKAVPGLTGKVVTIYNALDLEYFSPLQGPVPAGDGRLRFVVLASHQLKKNLLGLVEAAHQVVQAAPELDFTIEWFGRFDAGKNGPGDTGPFEQAKRRIETFRIQDRFIFSEPTSDVAAVYRRADALILPSFYEGLPNVVCEAMACGRPVLMSNVCDAENLVREGDNGFLFDPRDPADMARAILRFAALSGDDRKLMGEKSRKRAVILFNPERFAAHYRRVLESAMRREQTIIPHWCESIPQSAIRMIENEK”, for which the “soluble on expression in E. coli” value is given as “not soluble”.
